Results as given in patent publication US20050142568A1 (published 2005).

Legend:
Experiment in all cases: GST pull-down, 35S-Met protein vs GST fusion; - means no detectable binding (footnote a)
GST-CRN-4 = target: T1, GST-CRN-4 (C. elegans, UniProt Q10905 1-298)
T1 construct: also called CRN-4 GST-fusion protein; not shown: glutathione S-transferase tag encoded by vector pGEX4T-2
T1 sequence (looked up): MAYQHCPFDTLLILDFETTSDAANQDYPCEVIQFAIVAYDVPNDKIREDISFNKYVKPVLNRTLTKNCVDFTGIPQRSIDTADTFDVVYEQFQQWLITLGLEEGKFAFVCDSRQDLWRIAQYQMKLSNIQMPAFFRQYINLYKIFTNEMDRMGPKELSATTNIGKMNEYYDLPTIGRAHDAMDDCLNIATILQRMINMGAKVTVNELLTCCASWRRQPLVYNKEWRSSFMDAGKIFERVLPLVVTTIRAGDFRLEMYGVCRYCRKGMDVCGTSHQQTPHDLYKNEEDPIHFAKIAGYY
Procedure: (§1) GST fusion protein pull-down assays were performed as described in J. Parrish, H. Metters, L. Chen, D. Xue, Proc. Natl. Acad. Sci. U.S.A. 97, 11916 (2000). Purified GST or GST-fusion proteins (5 μg each) immobilized on glutathione sepharose beads were incubated with ³⁵S-Methionine labeled proteins at 4° C. for 2 hours. The beads were washed extensively and the bound proteins were resolved on a 12% SDS-PAGE and visualized by autoradiography. [0103] cDNAs corresponding to the ORFs were cloned into the pPD129.36 vector via its Nhe I and Xho I sites or the Xho I site alone. Full-length cDNAs were subcloned into the pGEX4T-2 vector for generating GST fusion proteins and for further protein purification and into the pcDNA3.1 vector for in vitro transcription/translation experiments.
(§2) ^aInteractions were evaluated relative to background binding of ³⁵S-Methionine labeled Luciferase to GST-fusion proteins and ³⁵S-Methionine labeled proteins to GST. “−” indicates no detectable binding, “+” indicates an interaction consistently observed above background levels, and “++” indicates a strong interaction. ^bBecause ³⁵S-Methionine labeled CRN-1 binds GST tightly, it was not possible to evaluate interactions between ³⁵S-CRN-1 and various GST-fusion proteins. ND, not determined.

GST-CPS-6 = target: T2, GST-CPS-6 (C. elegans, UniProt Q95NM6 1-308)
T2 construct: GST at the N-terminus as in pGEX vectors; also called CPS-6 GST-fusion protein; not shown: glutathione S-transferase tag encoded by vector pGEX4T-2
T2 sequence (looked up): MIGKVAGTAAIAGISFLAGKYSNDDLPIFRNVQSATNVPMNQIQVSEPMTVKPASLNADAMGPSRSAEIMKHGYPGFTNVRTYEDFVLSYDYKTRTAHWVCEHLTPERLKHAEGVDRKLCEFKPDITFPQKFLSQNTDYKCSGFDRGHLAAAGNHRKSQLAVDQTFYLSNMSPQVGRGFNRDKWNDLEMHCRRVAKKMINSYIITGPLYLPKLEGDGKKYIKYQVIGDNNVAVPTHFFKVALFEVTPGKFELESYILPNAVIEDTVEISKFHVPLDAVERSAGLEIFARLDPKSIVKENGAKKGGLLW
Procedure: as §1, §2

GST-CRN-6 = target: T3, GST-CRN-6 (C. elegans, UniProt P08515 1-218 = GST; P34508 1-373)
T3 construct: Two crn-6 cDNAs (700 bp and 1.1 kb) were isolated; the longer one made the GST fusion; also called CRN-6 GST-fusion protein
Procedure: as §1, §2

[1] = target: T4, GST (glutathione-S transferase alone) (UniProt P08515 1-218 = GST)
T4 construct: Purified GST used as negative control bait on glutathione sepharose beads; also called OST
Procedure: as §1, §2

GST-CRN-5 = target: T5, GST-CRN-5 (C. elegans, UniProt G5EG59 1-214)
T5 construct: also called CRN-5 GST-fusion protein; not shown: GST carrier and the linker of vector pGEX4T-2
T5 sequence: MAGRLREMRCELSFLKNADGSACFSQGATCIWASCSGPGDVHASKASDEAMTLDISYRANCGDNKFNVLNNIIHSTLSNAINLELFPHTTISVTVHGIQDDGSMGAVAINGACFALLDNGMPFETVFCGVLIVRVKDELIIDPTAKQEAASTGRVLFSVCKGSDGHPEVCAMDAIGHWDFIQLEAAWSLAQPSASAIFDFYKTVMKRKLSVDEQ
Procedure: as §1, §2

GST-CRN-1 = target: T6, GST-CRN-1 (C. elegans, UniProt Q9N3T2 21-382)
T6 construct: also called CRN-1 GST-fusion protein; not shown: glutathione S-transferase tag encoded by vector pGEX4T-2
T6 sequence (looked up): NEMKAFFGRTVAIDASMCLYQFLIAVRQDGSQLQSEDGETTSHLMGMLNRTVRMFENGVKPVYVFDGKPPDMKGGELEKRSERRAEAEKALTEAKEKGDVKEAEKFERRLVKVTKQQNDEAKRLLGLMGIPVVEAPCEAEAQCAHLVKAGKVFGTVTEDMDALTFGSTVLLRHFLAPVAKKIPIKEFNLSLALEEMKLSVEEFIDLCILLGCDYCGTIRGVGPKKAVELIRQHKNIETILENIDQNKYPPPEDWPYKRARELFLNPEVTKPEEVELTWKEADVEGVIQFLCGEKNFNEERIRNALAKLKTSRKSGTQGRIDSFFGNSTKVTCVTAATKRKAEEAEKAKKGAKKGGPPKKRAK
Procedure: as §1, §2

GST-NUC-1 = target: T7, GST-NUC-1 (C. elegans, UniProt Q17778 22-375)
T7 construct: also called NUC-1 GST-fusion protein; not shown: glutathione S-transferase tag encoded by vector pGEX4T-2
T7 sequence (looked up): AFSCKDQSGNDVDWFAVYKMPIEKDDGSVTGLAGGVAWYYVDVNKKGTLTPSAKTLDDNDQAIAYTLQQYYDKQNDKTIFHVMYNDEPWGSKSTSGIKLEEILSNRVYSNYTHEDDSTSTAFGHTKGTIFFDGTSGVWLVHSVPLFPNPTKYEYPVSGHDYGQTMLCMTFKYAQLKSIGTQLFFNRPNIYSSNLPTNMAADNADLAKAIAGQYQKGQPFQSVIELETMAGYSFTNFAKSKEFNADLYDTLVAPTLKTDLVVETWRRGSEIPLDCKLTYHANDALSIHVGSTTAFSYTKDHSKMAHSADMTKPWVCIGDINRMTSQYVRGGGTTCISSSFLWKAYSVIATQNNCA
Procedure: as §1, §2

T4 sequence (P08515 whole entry): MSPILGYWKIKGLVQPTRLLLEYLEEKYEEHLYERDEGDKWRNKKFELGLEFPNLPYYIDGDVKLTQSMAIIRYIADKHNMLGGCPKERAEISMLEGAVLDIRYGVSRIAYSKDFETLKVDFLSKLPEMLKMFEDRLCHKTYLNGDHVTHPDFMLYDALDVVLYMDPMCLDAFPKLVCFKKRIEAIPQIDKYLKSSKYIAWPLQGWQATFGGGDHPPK
T3 sequence (P08515 1-218, tags or fused parts left off): as the sequence (P08515 whole entry) above

binding result (GST-CRN-4): no binding
binding result (GST-CPS-6): no binding
binding result (GST-CRN-6): no binding
binding result [1]: no binding
binding result (GST-CRN-5): no binding
binding result (GST-CRN-1): no binding
binding result (GST-NUC-1): no binding
B1: ^35S-Methionine labeled CRN-2 (enzyme, C. elegans)
chain: MALYELVDIGANLGHPSYQKDLNDVLDRAKQAGLSKIMVTGTSEKISHECADLVEKYPGFLYFTAGVHPHDAKDWNDGTLEALKKLQENPSCVAVGECGLDFNRNFSPQDVQKEVFAKQVDMAVKLQKPLFIHEREAHEDMVKILTAAGPSLPPAVIHCFTGTVVEAKKYLEMGFYIGLTGFLWKDRSDNGVQAGLRSGEIPIEKLVLETDAPYMYPKINDKKIPKEIKSLITPETEALHNFSSFNRNEPCSLAAVCELVAAFAGRDPKEVAKITTENAKKVYKLE
